94 variants from the supplement of paper PMC10567573 can be followed below.

The chains are these.
B1: CCDC6 (parent)
chain: ASVTIQARAEQEEEFISNTLFKKI
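Further: lentivirally expressed fusions sorted by FACS into six bins by GFP to DsRed ratio, PSI derived from sequencing read proportions per bin multiplied by bin number.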

In the data set the parent is B1. In words: protein stability index of a GFP-peptide fusion (GPS, HEK-293T) (PSI 1-6); higher = more stable. Particulars: c terminus: a fixed tail appended.
Regarding ASVTIQARAEWEEEFISNTLFKKI [Q11W], the protein stability index came to 2.07.
On to ASVTIQARAEQLEEFISNTLFKKI [E12L], for which the protein stability index amounted to 2.07.
Then ASVTIQARAEQNEEFISNTLFKKI [E12N], with 3.06; and ASVTIQARAEQVEEFISNTLFKKI [E12V], with 2.19.
For ASVTIQARAEQIEEFISNTLFKKI [E12I], the protein stability index is 1.69.
Then ASVTIQARAEQFEEFISNTLFKKI [E12F], with 2.12; and ASVTIQARAEQWEEFISNTLFKKI [E12W], with 2.21; and ASVTIQARAEQTEEFISNTLFKKI [E12T], with 2.68.
In the case of ASVTIQARAEQPEEFISNTLFKKI [E12P], the protein stability index was found to be 3.03.
Turning to ASVTIQARAEQGEEFISNTLFKKI [E12G], the protein stability index was determined as 2.94.
Regarding ASVTIQARAEQREEFISNTLFKKI [E12R], the protein stability index stood at 2.7.
Next, ASVTIQARAEQDEEFISNTLFKKI [E12D]: 3.67; ASVTIQARAEQKEEFISNTLFKKI [E12K]: 3.17.
Then ASVTIQARAEQCEEFISNTLFKKI [E12C], with 2.35; and ASVTIQARAEQYEEFISNTLFKKI [E12Y], with 2.2.
As to ASVTIQARAEQQEEFISNTLFKKI [E12Q], the protein stability index turned out to be 3.27.
ASVTIQARAEQMEEFISNTLFKKI [E12M]: the protein stability index turned out to be 1.9.
Next, ASVTIQARAEQHEEFISNTLFKKI [E12H]: 2.83; ASVTIQARAEQAEEFISNTLFKKI [E12A]: 2.58; ASVTIQARAEQSEEFISNTLFKKI [E12S]: 2.95.
Then ASVTIQALAEQEEEFISNTLFKKI [R8L], with 3.03; and ASVTIQAPAEQEEEFISNTLFKKI [R8P], with 4.
Then ASVTIQAEAEQEEEFISNTLFKKI [R8E], with 4.55; and ASVTIQASAEQEEEFISNTLFKKI [R8S], with 4.05; and ASVTIQAFAEQEEEFISNTLFKKI [R8F], with 2.59.
With ASVTIQAAAEQEEEFISNTLFKKI [R8A], the protein stability index worked out at 3.79.
Turning to ASVTIQAGAEQEEEFISNTLFKKI [R8G], the protein stability index stood at 4.13.
Consider ASVTIQATAEQEEEFISNTLFKKI [R8T], for which the protein stability index is 3.58.
Regarding ASVTIQAHAEQEEEFISNTLFKKI [R8H], the protein stability index was found to be 3.78.
As to ASVTIQADAEQEEEFISNTLFKKI [R8D], the protein stability index worked out at 4.23.
As to ASVTIQAKAEQEEEFISNTLFKKI [R8K], the protein stability index was determined as 3.79.
As for ASVTIQAVAEQEEEFISNTLFKKI [R8V], the protein stability index worked out at 3.31.
Regarding ASVTIQAIAEQEEEFISNTLFKKI [R8I], the protein stability index turned out to be 2.98.
For the variant ASVTIQAWAEQEEEFISNTLFKKI [R8W], the protein stability index worked out at 3.27.
For ASVTIQAYAEQEEEFISNTLFKKI [R8Y], the protein stability index is 3.21.
Regarding ASVTIQANAEQEEEFISNTLFKKI [R8N], the protein stability index amounted to 3.69.
Next, ASVTIQACAEQEEEFISNTLFKKI [R8C]: 3.27; ASVTIQAQAEQEEEFISNTLFKKI [R8Q]: 4.14.
Then ASVTIQAMAEQEEEFISNTLFKKI [R8M], with 3.12.
Turning to ASVTIWARAEQEEEFISNTLFKKI [Q6W], the protein stability index turned out to be 2.94.
With ASVTISARAEQEEEFISNTLFKKI [Q6S], the protein stability index stood at 3.35.
With ASVTIKARAEQEEEFISNTLFKKI [Q6K], the protein stability index was 3.98.
Consider ASVTIPARAEQEEEFISNTLFKKI [Q6P], for which the protein stability index amounted to 4.2.
Next, ASVTIEARAEQEEEFISNTLFKKI [Q6E]: 4.26; ASVTIMARAEQEEEFISNTLFKKI [Q6M]: 2.54.
Take ASVTIHARAEQEEEFISNTLFKKI [Q6H]: the protein stability index was 3.49.
On to ASVTIYARAEQEEEFISNTLFKKI [Q6Y], for which the protein stability index worked out at 1.94.
In the case of ASVTITARAEQEEEFISNTLFKKI [Q6T], the protein stability index was 3.53.
Then ASVTIAARAEQEEEFISNTLFKKI [Q6A], with 3.47; and ASVTICARAEQEEEFISNTLFKKI [Q6C], with 2.81.
Then ASVTIDARAEQEEEFISNTLFKKI [Q6D], with 4.32; and ASVTIVARAEQEEEFISNTLFKKI [Q6V], with 2.71; and ASVTIIARAEQEEEFISNTLFKKI [Q6I], with 1.97.
For the variant ASVTIFARAEQEEEFISNTLFKKI [Q6F], the protein stability index came to 2.89.
With ASVTIGARAEQEEEFISNTLFKKI [Q6G], the protein stability index worked out at 3.73.
ASVTIRARAEQEEEFISNTLFKKI [Q6R]: the protein stability index is 3.26.
As for ASVTINARAEQEEEFISNTLFKKI [Q6N], the protein stability index amounted to 3.75.
Regarding ASVTILARAEQEEEFISNTLFKKI [Q6L], the protein stability index was 2.71.
Take ASVTIQARLEQEEEFISNTLFKKI [A9L]: the protein stability index is 2.5.
As for ASVTIQARVEQEEEFISNTLFKKI [A9V], the protein stability index is 2.91.
Consider ASVTIQAREEQEEEFISNTLFKKI [A9E], for which the protein stability index was determined as 4.16.
Consider ASVTIQARFEQEEEFISNTLFKKI [A9F], for which the protein stability index came to 2.37.
In the case of ASVTIQARTEQEEEFISNTLFKKI [A9T], the protein stability index was determined as 3.68.
In the case of ASVTIQARNEQEEEFISNTLFKKI [A9N], the protein stability index was 3.63.
As for ASVTIQARSEQEEEFISNTLFKKI [A9S], the protein stability index is 3.79.
Consider ASVTIQARMEQEEEFISNTLFKKI [A9M], for which the protein stability index came out at 3.08.
Take ASVTIQARHEQEEEFISNTLFKKI [A9H]: the protein stability index is 3.17.
In the case of ASVTIQARIEQEEEFISNTLFKKI [A9I], the protein stability index came to 2.62.
As for ASVTIQARGEQEEEFISNTLFKKI [A9G], the protein stability index turned out to be 3.67.
As to ASVTIQARPEQEEEFISNTLFKKI [A9P], the protein stability index is 3.87.
In the case of ASVTIQARKEQEEEFISNTLFKKI [A9K], the protein stability index stood at 3.6.
For ASVTIQARQEQEEEFISNTLFKKI [A9Q], the protein stability index came out at 4.09.
On to ASVTIQARWEQEEEFISNTLFKKI [A9W], for which the protein stability index was determined as 2.27.
As to ASVTIQARCEQEEEFISNTLFKKI [A9C], the protein stability index stood at 3.23.
With ASVTIQARYEQEEEFISNTLFKKI [A9Y], the protein stability index is 2.72.
As for ASVTIQARDEQEEEFISNTLFKKI [A9D], the protein stability index was found to be 4.42.
As to ASVTIQARREQEEEFISNTLFKKI [A9R], the protein stability index stood at 3.61.
Consider ASVTPQARAEQEEEFISNTLFKKI [I5P], for which the protein stability index came to 4.7.
For ASVTKQARAEQEEEFISNTLFKKI [I5K], the protein stability index amounted to 4.65.
ASVTDQARAEQEEEFISNTLFKKI [I5D]: the protein stability index was found to be 4.84.
Then ASVTMQARAEQEEEFISNTLFKKI [I5M], with 4.29.
In the case of ASVTLQARAEQEEEFISNTLFKKI [I5L], the protein stability index worked out at 3.84.
For ASVTGQARAEQEEEFISNTLFKKI [I5G], the protein stability index was found to be 4.75.
As to ASVTNQARAEQEEEFISNTLFKKI [I5N], the protein stability index came out at 4.49.
In the case of ASVTHQARAEQEEEFISNTLFKKI [I5H], the protein stability index is 4.32.
ASVTSQARAEQEEEFISNTLFKKI [I5S]: the protein stability index was determined as 4.24.
In the case of ASVTQQARAEQEEEFISNTLFKKI [I5Q], the protein stability index worked out at 5.03.
On to ASVTYQARAEQEEEFISNTLFKKI [I5Y], for which the protein stability index is 3.73.
Next, ASVTEQARAEQEEEFISNTLFKKI [I5E]: 4.58.
Turning to ASVTRQARAEQEEEFISNTLFKKI [I5R], the protein stability index is 4.44.
Then ASVTWQARAEQEEEFISNTLFKKI [I5W], with 3.66; and ASVTVQARAEQEEEFISNTLFKKI [I5V], with 4.
Next, ASVTFQARAEQEEEFISNTLFKKI [I5F]: 3.96.
Then ASVTTQARAEQEEEFISNTLFKKI [I5T], with 4.28.
